# Source: paper PMC13602928
# Legend:
# [1] = biological target: stripped Anabaena flos-aquae (Ana) gas vesicles (GV shell, native GvpC removed) (Anabaena flos-aquae) (UniProt P10397)
# [2] = biological target: stripped Anabaena flos-aquae (Ana) gas vesicles (GV shell, native GvpC removed) (Anabaena flos-aquae) (UniProt P10397); remark: listed apart in the source
# Sequence of UniProt P10397 (P10397 whole entry): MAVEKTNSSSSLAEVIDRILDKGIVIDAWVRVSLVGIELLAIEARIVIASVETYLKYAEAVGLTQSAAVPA
substance,measurement,setting,value
phosphorylated UReKA1 GvpC (pThr60),time course of the nonlinear ultrasound signal of UReKA1 GVs after PKA addition; time to maximal contrast (signal first detectable after 2-3 h),[1],8 h
same,"midpoint collapse pressure of UReKA1 GVs (pressurized absorbance spectroscopy), after PKA phosphorylation",[2],227 kPa
same,"nonlinear (xAM) ultrasound signal of purified UReKA1 GVs at 350 kPa, with PKA against without PKA",[2],4.5 fold
phosphorylated UReKA2 GvpC (pThr81),time course of the nonlinear ultrasound signal of UReKA2 GVs after PKA addition; time to maximal contrast (signal first detectable after 2-3 h),[1],12 h
same,"midpoint collapse pressure of UReKA2 GVs (pressurized absorbance spectroscopy), after PKA phosphorylation",[2],283 kPa
same,"nonlinear (xAM) ultrasound signal of purified UReKA2 GVs at 489 kPa, with PKA against without PKA",[2],12.9 fold
